We go through five substances from US20040009166A1.

Experiment [1] has as its target Recombinant human TNF-alpha (Pierce, cat # RTNFA50) (human) (UniProt P01375). Description: cell-based or functional assay.
For experiment [2] the target is unchanged. In words: SPR (BiaCore X), rhTNF-alpha immobilized on CM5 chip, SCA as analyte, 1:1 fit.

Sequence of UniProt P01375 (P01375 whole entry, form in doubt): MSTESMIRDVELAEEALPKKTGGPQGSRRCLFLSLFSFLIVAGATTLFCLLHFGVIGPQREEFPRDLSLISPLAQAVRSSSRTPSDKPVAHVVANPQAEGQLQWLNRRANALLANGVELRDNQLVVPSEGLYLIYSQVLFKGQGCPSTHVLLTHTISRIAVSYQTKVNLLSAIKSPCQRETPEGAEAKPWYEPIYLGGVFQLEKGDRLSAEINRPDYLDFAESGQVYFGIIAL

With “2-7-SC-2 SCA (D2E7 SCA, VL-218-VH-his6, C-terminus Cys), native (scFv)”, in experiment [1], the IC50, TNF-sensitive cell rescue assay, after 5 cycles of freeze-thaw is 225 nM; the IC50, TNF-sensitive cell rescue assay, after 10 cycles of freeze-thaw worked out at 0.302 µg/mL; the IC50 values (to rescue 50% WEHI-13VAR cells from killing by 1.0 ng/ml TNF) amounted to 3.05 nM. Moreover, in experiment [2], the Ka was 8.36e+08 M⁻¹, the Kd stood at 1.2 nM, the koff came out at 0.000392 s⁻¹ and the kon came to 328000 M⁻¹ s⁻¹.
With “2-7-SC-3 SCA (D2E7 SCA, VH-(GGGGS)3-VL-his6, C-terminus Cys), native (scFv)”, in experiment [2], the Ka was 1.1e+08 M⁻¹, the Kd turned out to be 9.05 nM, the koff worked out at 0.000416 s⁻¹ and the kon is 46400 M⁻¹ s⁻¹.
In the case of “2-7-SC-4 SCA (D2E7 SCA, VL-218-VH, no his tag, C-terminus Cys), native (scFv)”, in experiment [1], the IC50 Values (cell rescue of WEHI-13VAR cells from TNF-alpha) came to 7.18 nM. For the same substance, in experiment [2], the Ka is 5.49e+08 M⁻¹, the Kd came to 1.82 nM, the koff is 0.000495 s⁻¹ and the kon stood at 272000 M⁻¹ s⁻¹.
As for “2-7-SC-5 SCA (D2E7 SCA, VL-218-VH-his6, Cys at linker position 2), native (scFv)”, the IC50 Values (cell rescue of WEHI-13VAR cells from TNF-alpha) in experiment [1] was found to be 4.18 nM. Besides, in experiment [2], the Ka is 1.55e+10 M⁻¹, the Kd came to 0.0644 nM, the koff amounted to 1.12e-05 s⁻¹ and the kon came out at 173000 M⁻¹ s⁻¹.
As to “2-7-SC-7 SCA (D2E7 SCA, VH-(GGGGS)3-VL-his6, Cys at linker position 2), native (scFv)”, in experiment [2], the Ka turned out to be 1.19e+10 M⁻¹, the Kd came out at 0.0843 nM, the koff stood at 2.96e-06 s⁻¹ and the kon worked out at 35100 M⁻¹ s⁻¹.
